Consider one molecule from patent publication WO2016167227A1.

The target of the assay is human-derived insoluble fibrin (human) (UniProt P02671). As to the kind of experiment: ELISA, peroxidase-labelled antibody on fibrin plate; 0.1 μg/mL of 443-2 gave about the signal of 10 μg/mL of the reference.
Chain of UniProt P02671 (P02671 36-629 limits assumed, chain 1 of 3): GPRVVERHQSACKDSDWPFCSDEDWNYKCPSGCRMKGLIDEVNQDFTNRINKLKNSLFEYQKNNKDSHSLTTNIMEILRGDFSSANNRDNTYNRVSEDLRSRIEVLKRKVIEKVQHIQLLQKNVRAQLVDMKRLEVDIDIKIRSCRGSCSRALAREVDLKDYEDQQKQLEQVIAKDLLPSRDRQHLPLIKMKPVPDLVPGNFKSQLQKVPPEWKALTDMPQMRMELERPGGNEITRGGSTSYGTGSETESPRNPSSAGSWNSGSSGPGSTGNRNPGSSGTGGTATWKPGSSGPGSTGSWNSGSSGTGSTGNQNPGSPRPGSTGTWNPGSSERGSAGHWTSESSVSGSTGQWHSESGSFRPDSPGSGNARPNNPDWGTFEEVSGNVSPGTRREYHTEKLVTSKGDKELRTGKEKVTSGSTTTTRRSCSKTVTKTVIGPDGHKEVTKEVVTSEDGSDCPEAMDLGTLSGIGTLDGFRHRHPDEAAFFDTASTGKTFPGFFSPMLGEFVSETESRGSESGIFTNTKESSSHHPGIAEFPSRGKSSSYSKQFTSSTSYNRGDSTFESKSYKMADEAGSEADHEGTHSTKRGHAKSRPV
Chain of UniProt P02671 (chain, as listed by the source limits assumed, chain 2 of 3): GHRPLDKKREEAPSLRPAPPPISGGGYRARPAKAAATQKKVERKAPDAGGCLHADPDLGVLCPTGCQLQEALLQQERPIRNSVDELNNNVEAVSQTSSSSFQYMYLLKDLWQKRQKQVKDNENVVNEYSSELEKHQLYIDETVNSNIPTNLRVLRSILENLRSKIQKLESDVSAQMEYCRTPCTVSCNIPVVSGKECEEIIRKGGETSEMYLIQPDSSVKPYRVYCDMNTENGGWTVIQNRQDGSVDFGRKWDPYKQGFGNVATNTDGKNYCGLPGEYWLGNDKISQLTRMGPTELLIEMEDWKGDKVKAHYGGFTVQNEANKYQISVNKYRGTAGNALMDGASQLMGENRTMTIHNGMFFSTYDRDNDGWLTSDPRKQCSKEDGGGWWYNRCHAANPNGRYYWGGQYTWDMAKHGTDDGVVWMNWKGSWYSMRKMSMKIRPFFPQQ
Chain of UniProt P02671 (chain, as listed by the source limits assumed, chain 3 of 3): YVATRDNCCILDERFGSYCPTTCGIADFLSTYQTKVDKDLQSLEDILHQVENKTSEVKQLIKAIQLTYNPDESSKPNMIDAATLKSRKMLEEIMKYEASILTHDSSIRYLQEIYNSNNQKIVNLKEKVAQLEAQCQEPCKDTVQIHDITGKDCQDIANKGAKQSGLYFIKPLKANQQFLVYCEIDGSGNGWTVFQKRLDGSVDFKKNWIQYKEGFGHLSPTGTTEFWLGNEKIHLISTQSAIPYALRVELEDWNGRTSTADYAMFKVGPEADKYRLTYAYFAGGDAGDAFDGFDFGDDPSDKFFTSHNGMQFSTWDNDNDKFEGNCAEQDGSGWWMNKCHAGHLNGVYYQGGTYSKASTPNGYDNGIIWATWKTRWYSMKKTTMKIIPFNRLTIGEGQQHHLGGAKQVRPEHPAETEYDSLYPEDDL

B1: 443-2 antibody (antibody, V domains shown)
VH: QIQLVQSGPELKKPGESVKISCKASGYTFTDYAMNWVKQAPGNGLKWMGWINTQTGKPTYADDFKQRFVFSLETSATTAYLQINNLNIEDTATYFCTRLMDAWGQGASVTVSS
VL: DIVMTQSPSSLAVSAGETVTINCKSSQSLLSSGNQKNYLAWYQQKPGQSPKLLIYLASTRESGVPDRLIGSGSGTDFTLTISSMQAEDLAIYYCQQYYETPHTFGAGTKLELKR
B1 registered a fold affinity for insoluble fibrin against the 102-10 antibody (printed 102-12) of 100 times.
